Experimental data reported in IntAct's records for PubMed 20371349.

B1: Catenin delta-1 (Homo sapiens), O60716-5 (parent)
chain: MDDSEVESTASILASVKEQEAQFEKLTRALEEERRHVSAQLERVRVSPQDANPLMANGTLTRRHQNGRFVGDADLERQKFSDLKLNGPQDHSHLLYSTIPRMQEPGQIVETYTEEDPEGAMSVVSVETSDDGTTRRTETTVKKVVKTVTTRTVQPVAMGPDGLPVDASSVSNNYIQTLGRDFRKNGNGGPGPYVGQAGTATLPRNFHYPPDGYSRHYEDGYPGGSDNYGSLSRVTRIEERYRPSMEGYRAPSRQDVYGPQPQVRVGGSSVDLHRFHPEPYGLEDDQRSMGYDDLDYGMMSDYGTARRTGTPSDPRRRLRSYEDMIGEEVPSDQYYWAPLAQHERGSLASLDSLRKGGPPPPNWRQPELPEVIAMLGFRLDAVKSNAAAYLQHLCYRNDKVKTDVRKLKGIPVLVGLLDHPKKEVHLGACGALKNISFGRDQDNKIAIKNCDGVPALVRLLRKARDMDLTEVITGTLWNLSSHDSIKMEIVDHALHALTDEVIIPHSGWEREPNEDCKPRHIEWESVLTNTAGCLRNVSSERSEARRKLRECDGLVDALIFIVQAEIGQKDSDSKLVENCVCLLRNLSYQVHREIPQAERYQEAAPNVANNTGPHAASCFGAKKGKGKKPIEDPANDTVDFPKRTSPARGYELLFQPEVVRIYISLLKESKTPAILEASAGAIQNLCAGRWTYGRYIRSALRQEKALSAIADLLTNEHERVVKAASGALRNLAVDARNKELIGKHAIPNLVKNLPGGQQNSSWNFSEDTVISILNTINEVIAENLEAAKKLRETQGIEKLVLINKSGNRSEKEVRAAALVLQTIWGYKELRKPLEKEGWKKSDFQVNLNNASRSQSSHSYDDSTLPLIDRNQKSDKKPDREEIQMSNMGSNTKSLDNNYSTPNERGDHNRTLDRSGDLGDMEPLKGTTPLMQKI
B2: Catenin delta-1 (Homo sapiens), O60716-29 (parent)
chain: MIGEEVPSDQYYWAPLAQHERGSLASLDSLRKGGPPPPNWRQPELPEVIAMLGFRLDAVKSNAAAYLQHLCYRNDKVKTDVRKLKGIPVLVGLLDHPKKEVHLGACGALKNISFGRDQDNKIAIKNCDGVPALVRLLRKARDMDLTEVITGTLWNLSSHDSIKMEIVDHALHALTDEVIIPHSGWEREPNEDCKPRHIEWESVLTNTAGCLRNVSSERSEARRKLRECDGLVDALIFIVQAEIGQKDSDSKLVENCVCLLRNLSYQVHREIPQAERYQEAAPNVANNTGPHAASCFGAKKGKGKKPIEDPANDTVDFPKRTSPARGYELLFQPEVVRIYISLLKESKTPAILEASAGAIQNLCAGRWTYGRYIRSALRQEKALSAIADLLTNEHERVVKAASGALRNLAVDARNKELIGKHAIPNLVKNLPGGQQNSSWNFSEDTVISILNTINEVIAENLEAAKKLRETQGIEKLVLINKSGNRSEKEVRAAALVLQTIWGYKELRKPLEKEGWKKSDFQVNLNNASRSQSSHSYDDSTLPLIDRNQKSDKKPDREEIQMSNMGSNTKSLDNNYSTPNERGDHNRTLDRSGDLGDMEPLKGTTPLMQKI

Variants of: B1
Conditions: with cadh1_human CDH1, P12830
cadh1_human CDH1, P12830, sequence (P12830 whole entry): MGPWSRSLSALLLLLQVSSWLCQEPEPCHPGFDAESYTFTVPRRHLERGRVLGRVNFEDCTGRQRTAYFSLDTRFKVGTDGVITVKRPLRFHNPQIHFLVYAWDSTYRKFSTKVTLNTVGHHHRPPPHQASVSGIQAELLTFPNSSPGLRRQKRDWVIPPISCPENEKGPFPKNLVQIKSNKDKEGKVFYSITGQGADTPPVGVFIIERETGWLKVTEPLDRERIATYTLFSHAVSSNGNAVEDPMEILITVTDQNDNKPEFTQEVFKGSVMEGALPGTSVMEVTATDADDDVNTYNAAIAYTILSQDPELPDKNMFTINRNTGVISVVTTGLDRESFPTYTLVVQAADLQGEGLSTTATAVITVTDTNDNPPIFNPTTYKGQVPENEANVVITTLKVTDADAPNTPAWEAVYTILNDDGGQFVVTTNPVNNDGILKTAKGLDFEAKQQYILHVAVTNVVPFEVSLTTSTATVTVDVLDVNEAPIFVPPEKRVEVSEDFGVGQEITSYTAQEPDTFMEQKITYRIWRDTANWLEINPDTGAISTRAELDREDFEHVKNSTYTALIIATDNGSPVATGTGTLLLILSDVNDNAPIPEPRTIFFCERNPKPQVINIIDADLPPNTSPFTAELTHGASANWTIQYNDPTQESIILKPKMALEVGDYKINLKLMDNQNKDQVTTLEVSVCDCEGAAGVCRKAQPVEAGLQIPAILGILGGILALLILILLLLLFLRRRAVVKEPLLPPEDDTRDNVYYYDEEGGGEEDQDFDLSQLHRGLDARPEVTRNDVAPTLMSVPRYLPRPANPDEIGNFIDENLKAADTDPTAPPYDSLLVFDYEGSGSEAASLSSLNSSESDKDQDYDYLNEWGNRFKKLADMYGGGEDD

Row | effect of a mutation on the interaction | Variant
1 | decreasing interaction | N478A
2 | decreasing interaction | K401M

Variants of: B2
Conditions: with cadh1_mouse Cdh1, P09803
cadh1_mouse Cdh1, P09803, sequence (P09803 whole entry): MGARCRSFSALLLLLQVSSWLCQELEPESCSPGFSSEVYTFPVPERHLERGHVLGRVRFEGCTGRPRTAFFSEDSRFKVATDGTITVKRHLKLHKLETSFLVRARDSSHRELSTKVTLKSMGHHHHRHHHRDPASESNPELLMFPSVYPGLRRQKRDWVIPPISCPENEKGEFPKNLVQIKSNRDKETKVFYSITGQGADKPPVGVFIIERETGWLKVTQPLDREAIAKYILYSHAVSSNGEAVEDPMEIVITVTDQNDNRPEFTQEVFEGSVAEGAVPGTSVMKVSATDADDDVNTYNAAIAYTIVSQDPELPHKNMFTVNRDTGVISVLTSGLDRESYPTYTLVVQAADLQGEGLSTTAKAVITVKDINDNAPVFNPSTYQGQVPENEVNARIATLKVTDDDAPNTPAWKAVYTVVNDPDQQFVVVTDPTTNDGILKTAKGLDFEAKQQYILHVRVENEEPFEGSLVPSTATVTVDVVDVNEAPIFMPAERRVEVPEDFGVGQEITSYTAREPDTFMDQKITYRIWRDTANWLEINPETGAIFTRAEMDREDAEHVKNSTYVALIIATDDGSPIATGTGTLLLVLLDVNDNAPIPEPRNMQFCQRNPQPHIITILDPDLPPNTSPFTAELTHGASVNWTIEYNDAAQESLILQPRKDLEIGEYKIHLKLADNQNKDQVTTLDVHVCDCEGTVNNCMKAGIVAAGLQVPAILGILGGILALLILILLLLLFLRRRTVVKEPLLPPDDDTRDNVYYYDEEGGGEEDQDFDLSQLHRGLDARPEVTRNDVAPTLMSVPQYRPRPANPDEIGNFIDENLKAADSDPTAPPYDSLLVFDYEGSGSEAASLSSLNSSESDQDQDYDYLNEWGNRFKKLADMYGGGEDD

Row | Variant | effect of a mutation on the interaction
3 | N155A | disrupting interaction
4 | W154A | decreasing interaction

Now from value to variant:

Row | effect of a mutation on the interaction | Variant
5 | disrupting interaction | K78M
6 | disrupting interaction | K121M
